Data reported in the supplement of paper PMC10065799, “High-throughput profiling of sequence recognition by tyrosine kinases and SH2 domains using bacterial peptide display” (eLife, 2023).

target: EPHB2 (UniProt P29323); assay: phosphorylation enrichment, bacterial display (enrichment ratio); higher = better substrate or ligand; peptides without Tyr show the background
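Throughout, for SH2 binding enrichment of the phosphorylated peptide, bacterial display: peptide library displayed on the E. coli surface as eCPX fusions, selected cells deep-sequenced, score is each peptide's frequency after selection divided by its frequency in the input.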
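Throughout, for phosphorylation enrichment, bacterial display: 11-residue human phosphosite peptides and single-mutation variants displayed on the E. coli surface, counted by deep sequencing, each peptide's frequency after selection divided by its frequency in the unselected input library; frequency after pTyr selection over input frequency; kinase dosed for 20-30% of maximal phosphorylation in three min.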

Chain of EPHB2 (P29323 whole entry, looked up, the tested form may be a part): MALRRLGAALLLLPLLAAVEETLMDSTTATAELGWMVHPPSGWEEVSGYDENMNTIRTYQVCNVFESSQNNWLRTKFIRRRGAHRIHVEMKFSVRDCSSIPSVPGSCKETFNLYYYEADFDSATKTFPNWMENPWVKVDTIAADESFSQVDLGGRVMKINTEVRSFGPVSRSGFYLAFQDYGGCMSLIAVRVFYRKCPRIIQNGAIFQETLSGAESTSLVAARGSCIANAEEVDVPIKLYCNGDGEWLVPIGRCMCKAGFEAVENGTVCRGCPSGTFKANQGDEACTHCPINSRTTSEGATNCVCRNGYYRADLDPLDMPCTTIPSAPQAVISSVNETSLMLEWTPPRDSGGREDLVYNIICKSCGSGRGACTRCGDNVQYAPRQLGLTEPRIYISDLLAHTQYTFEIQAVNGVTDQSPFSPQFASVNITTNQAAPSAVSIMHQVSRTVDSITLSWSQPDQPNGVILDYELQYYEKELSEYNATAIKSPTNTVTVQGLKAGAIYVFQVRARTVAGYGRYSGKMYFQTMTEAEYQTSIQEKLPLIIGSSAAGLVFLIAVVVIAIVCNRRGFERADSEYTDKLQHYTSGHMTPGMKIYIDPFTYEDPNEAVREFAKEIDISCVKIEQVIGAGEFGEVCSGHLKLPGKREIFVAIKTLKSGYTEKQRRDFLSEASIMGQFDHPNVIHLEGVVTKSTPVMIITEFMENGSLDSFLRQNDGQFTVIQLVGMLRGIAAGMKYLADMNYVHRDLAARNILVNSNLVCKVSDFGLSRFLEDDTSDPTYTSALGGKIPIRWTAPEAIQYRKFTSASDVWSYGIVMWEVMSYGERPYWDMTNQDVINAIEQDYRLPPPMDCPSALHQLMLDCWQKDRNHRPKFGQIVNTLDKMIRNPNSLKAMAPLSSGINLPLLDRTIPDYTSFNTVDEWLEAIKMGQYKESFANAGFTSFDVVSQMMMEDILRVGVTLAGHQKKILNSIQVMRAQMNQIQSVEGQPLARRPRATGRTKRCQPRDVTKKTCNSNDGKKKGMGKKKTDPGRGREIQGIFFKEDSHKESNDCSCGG

Going from SIKDKYLTALY [KCNH2_Y611_V612L] to AAGGRYYGLVG [HARS1_Y363_D364Y], the phosphorylation enrichment falls from 0.452 to 0.441.

First: SQKRKYIEIDS [SDAD1_Y580]
Second: CTTIHSNYMCN [TP53_Y234_Y234S]
The phosphorylation enrichment of the first is lower: 0.414 for the first, 0.563 for the second.

Going from LEHCQYVTEKV [ALDOB_Y204] to SVTCTYSSALN [TP53_Y126_P128S], the phosphorylation enrichment falls from 1.55 to 0.576.

Going from ADARMYGDLPW [PLP1_Y207_V209D] to SSFDIYHLSRE [KIR3DL2_Y253_YF], the phosphorylation enrichment rises from 0.506 to 0.762.

Compared with TLNVRHESVQA [CEACAM7_Y236_Y236H], VDEVLYEDSST [MTHFS_Y197] is higher in phosphorylation enrichment: 0.44 for the first, 0.671 for the second.

First: DDLTDYLMKIL [ACTA1_Y190_R185D]
Second: TTGLIYIGSHD [AASDH_Y870]
The phosphorylation enrichment of the first is lower: 0.553 for the first, 0.565 for the second.

First: RPQDGFRIVQH [PTPRT_Y1329_Y1329F]
Second: EFNLMYDGTKE [IRF6_Y97]
The phosphorylation enrichment of the first is lower: 0.426 for the first, 0.462 for the second.

First: GQDLLYEDEDL [PACS1_Y303_F302L]
Second: YAFQLYDLDPD [CHP2_Y123_R127P]
The phosphorylation enrichment of the first is lower: 0.733 for the first, 0.998 for the second.

Compared with KKKKQYKDKYL [CASK_Y708], QRRFVYFFSFL [PTEN_Y176_YF] is higher in phosphorylation enrichment: 0.393 for the first, 0.61 for the second.

Compared with HNELFYEEAEH [VANGL1_Y345_YF], DLGIQYKVLKP [CTNNA1_Y177_A179V] is lower in phosphorylation enrichment: 0.932 for the first, 0.624 for the second.

Going from SSKILYHIIKG [CDH17_Y489] to LYSDHYSPSGR [TMPRSS12_Y23], the phosphorylation enrichment rises from 0.529 to 2.91.

Going from RLQEDYDHSYY [ESD_Y258_G257D] to CNRADYSKLAP [GNE_Y22], the phosphorylation enrichment falls from 0.811 to 0.607.

First: IALSKYGRVKW [FGF6_Y186_R191W]
Second: LNPLVYTLRNA [OR4C12_Y285_V283L]
The phosphorylation enrichment of the first is lower: 0.329 for the first, 1.28 for the second.

Compared with LSDGPYSSPFE [EPOR_Y485_N487S_YF], CTTFHYNFMCN [TP53_Y234_I232F_YF] is higher in phosphorylation enrichment: 0.53 for the first, 0.57 for the second.

First: VKKKLDEEIDQ [CYP17A1_Y329_Y329D]
Second: HICTAYELVLA [DHCR24_Y190]
The phosphorylation enrichment of the first is lower: 0.555 for the first, 1.02 for the second.

Compared with TVFENYVADIK [RHOA_Y42_E47K], GKLIFYDLRGE [KARS1_Y145] is lower in phosphorylation enrichment: 0.676 for the first, 0.637 for the second.

Work on RFLERYIYNPE [HLA-DPB1_Y57_R61P] yielded a phosphorylation enrichment of 0.675.

target: c-Src SH2; assay: SH2 binding enrichment of the phosphorylated peptide, bacterial display (enrichment ratio); higher = better substrate or ligand; peptides without Tyr show the background

Compared with SIKDKYLTALY [KCNH2_Y611_V612L], AAGGRYYGLVG [HARS1_Y363_D364Y] is higher in SH2 binding enrichment: 0.565 for the first, 1.79 for the second.

Compared with SQKRKYIEIDS [SDAD1_Y580], CTTIHSNYMCN [TP53_Y234_Y234S] is lower in SH2 binding enrichment: 2.09 for the first, 1.02 for the second.

Going from LEHCQYVTEKV [ALDOB_Y204] to SVTCTYSSALN [TP53_Y126_P128S], the SH2 binding enrichment falls from 0.744 to 0.537.

Going from ADARMYGDLPW [PLP1_Y207_V209D] to SSFDIYHLSRE [KIR3DL2_Y253_YF], the SH2 binding enrichment rises from 0.573 to 0.608.

Compared with TLNVRHESVQA [CEACAM7_Y236_Y236H], VDEVLYEDSST [MTHFS_Y197] is lower in SH2 binding enrichment: 0.579 for the first, 0.489 for the second.

First: DDLTDYLMKIL [ACTA1_Y190_R185D]
Second: TTGLIYIGSHD [AASDH_Y870]
The SH2 binding enrichment of the first is higher: 0.689 for the first, 0.624 for the second.

Compared with RPQDGFRIVQH [PTPRT_Y1329_Y1329F], EFNLMYDGTKE [IRF6_Y97] is lower in SH2 binding enrichment: 0.586 for the first, 0.489 for the second.

Compared with GQDLLYEDEDL [PACS1_Y303_F302L], YAFQLYDLDPD [CHP2_Y123_R127P] is higher in SH2 binding enrichment: 0.505 for the first, 1.28 for the second.

First: KKKKQYKDKYL [CASK_Y708]
Second: QRRFVYFFSFL [PTEN_Y176_YF]
The SH2 binding enrichment of the first is lower: 0.275 for the first, 0.642 for the second.

Going from HNELFYEEAEH [VANGL1_Y345_YF] to DLGIQYKVLKP [CTNNA1_Y177_A179V], the SH2 binding enrichment falls from 0.645 to 0.411.

Going from SSKILYHIIKG [CDH17_Y489] to LYSDHYSPSGR [TMPRSS12_Y23], the SH2 binding enrichment falls from 6.59 to 0.473.

First: RLQEDYDHSYY [ESD_Y258_G257D]
Second: CNRADYSKLAP [GNE_Y22]
The SH2 binding enrichment of the first is lower: 1.16 for the first, 1.18 for the second.

Compared with IALSKYGRVKW [FGF6_Y186_R191W], LNPLVYTLRNA [OR4C12_Y285_V283L] is lower in SH2 binding enrichment: 1.33 for the first, 1.02 for the second.

Compared with LSDGPYSSPFE [EPOR_Y485_N487S_YF], CTTFHYNFMCN [TP53_Y234_I232F_YF] is higher in SH2 binding enrichment: 1.02 for the first, 2.14 for the second.

Going from VKKKLDEEIDQ [CYP17A1_Y329_Y329D] to HICTAYELVLA [DHCR24_Y190], the SH2 binding enrichment falls from 0.705 to 0.573.

Going from TVFENYVADIK [RHOA_Y42_E47K] to GKLIFYDLRGE [KARS1_Y145], the SH2 binding enrichment rises from 0.538 to 0.688.

RFLERYIYNPE [HLA-DPB1_Y57_R61P] gave an SH2 binding enrichment of 0.966.

target: SHP2-C SH2; assay: as above

First: SIKDKYLTALY [KCNH2_Y611_V612L]
Second: AAGGRYYGLVG [HARS1_Y363_D364Y]
The SH2 binding enrichment of the first is higher: 0.634 for the first, 0.595 for the second.

First: SQKRKYIEIDS [SDAD1_Y580]
Second: CTTIHSNYMCN [TP53_Y234_Y234S]
The SH2 binding enrichment of the first is lower: 1.04 for the first, 1.39 for the second.

First: LEHCQYVTEKV [ALDOB_Y204]
Second: SVTCTYSSALN [TP53_Y126_P128S]
The SH2 binding enrichment of the first is higher: 0.821 for the first, 0.732 for the second.

First: ADARMYGDLPW [PLP1_Y207_V209D]
Second: SSFDIYHLSRE [KIR3DL2_Y253_YF]
The SH2 binding enrichment of the first is higher: 1.09 for the first, 0.694 for the second.

First: TLNVRHESVQA [CEACAM7_Y236_Y236H]
Second: VDEVLYEDSST [MTHFS_Y197]
The SH2 binding enrichment of the first is higher: 0.714 for the first, 0.635 for the second.

First: DDLTDYLMKIL [ACTA1_Y190_R185D]
Second: TTGLIYIGSHD [AASDH_Y870]
The SH2 binding enrichment of the first is higher: 1.26 for the first, 0.69 for the second.

Going from RPQDGFRIVQH [PTPRT_Y1329_Y1329F] to EFNLMYDGTKE [IRF6_Y97], the SH2 binding enrichment rises from 0.734 to 1.21.

Going from GQDLLYEDEDL [PACS1_Y303_F302L] to YAFQLYDLDPD [CHP2_Y123_R127P], the SH2 binding enrichment rises from 0.632 to 1.71.

First: KKKKQYKDKYL [CASK_Y708]
Second: QRRFVYFFSFL [PTEN_Y176_YF]
The SH2 binding enrichment of the first is lower: 0.244 for the first, 0.821 for the second.

Compared with HNELFYEEAEH [VANGL1_Y345_YF], DLGIQYKVLKP [CTNNA1_Y177_A179V] is lower in SH2 binding enrichment: 0.733 for the first, 0.691 for the second.

Compared with SSKILYHIIKG [CDH17_Y489], LYSDHYSPSGR [TMPRSS12_Y23] is lower in SH2 binding enrichment: 3.78 for the first, 0.544 for the second.

Going from RLQEDYDHSYY [ESD_Y258_G257D] to CNRADYSKLAP [GNE_Y22], the SH2 binding enrichment falls from 0.741 to 0.622.

Compared with IALSKYGRVKW [FGF6_Y186_R191W], LNPLVYTLRNA [OR4C12_Y285_V283L] is lower in SH2 binding enrichment: 1.89 for the first, 0.893 for the second.

Going from LSDGPYSSPFE [EPOR_Y485_N487S_YF] to CTTFHYNFMCN [TP53_Y234_I232F_YF], the SH2 binding enrichment rises from 0.473 to 1.47.

Going from VKKKLDEEIDQ [CYP17A1_Y329_Y329D] to HICTAYELVLA [DHCR24_Y190], the SH2 binding enrichment falls from 0.853 to 0.708.

First: TVFENYVADIK [RHOA_Y42_E47K]
Second: GKLIFYDLRGE [KARS1_Y145]
The SH2 binding enrichment of the first is lower: 0.607 for the first, 0.956 for the second.

Work on RFLERYIYNPE [HLA-DPB1_Y57_R61P] yielded an SH2 binding enrichment of 1.28.

target: Grb2 SH2 (UniProt P62993); assay: as above
Sequence (P62993 whole entry, looked up): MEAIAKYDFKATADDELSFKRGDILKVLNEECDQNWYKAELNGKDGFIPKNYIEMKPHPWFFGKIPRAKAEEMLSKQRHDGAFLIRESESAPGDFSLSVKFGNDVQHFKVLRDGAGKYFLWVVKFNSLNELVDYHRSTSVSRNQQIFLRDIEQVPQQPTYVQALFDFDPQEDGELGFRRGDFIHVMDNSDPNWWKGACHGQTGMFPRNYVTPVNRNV

First: SIKDKYLTALY [KCNH2_Y611_V612L]
Second: AAGGRYYGLVG [HARS1_Y363_D364Y]
The SH2 binding enrichment of the first is higher: 0.968 for the first, 0.938 for the second.

Going from SQKRKYIEIDS [SDAD1_Y580] to CTTIHSNYMCN [TP53_Y234_Y234S], the SH2 binding enrichment rises from 0.856 to 1.1.

Compared with LEHCQYVTEKV [ALDOB_Y204], SVTCTYSSALN [TP53_Y126_P128S] is higher in SH2 binding enrichment: 0.756 for the first, 0.78 for the second.

Going from ADARMYGDLPW [PLP1_Y207_V209D] to SSFDIYHLSRE [KIR3DL2_Y253_YF], the SH2 binding enrichment falls from 0.868 to 0.776.

Going from TLNVRHESVQA [CEACAM7_Y236_Y236H] to VDEVLYEDSST [MTHFS_Y197], the SH2 binding enrichment falls from 0.978 to 0.849.

Compared with DDLTDYLMKIL [ACTA1_Y190_R185D], TTGLIYIGSHD [AASDH_Y870] is higher in SH2 binding enrichment: 0.962 for the first, 1.04 for the second.

Going from RPQDGFRIVQH [PTPRT_Y1329_Y1329F] to EFNLMYDGTKE [IRF6_Y97], the SH2 binding enrichment rises from 0.766 to 0.883.

Compared with GQDLLYEDEDL [PACS1_Y303_F302L], YAFQLYDLDPD [CHP2_Y123_R127P] is higher in SH2 binding enrichment: 0.8 for the first, 0.986 for the second.

Compared with KKKKQYKDKYL [CASK_Y708], QRRFVYFFSFL [PTEN_Y176_YF] is higher in SH2 binding enrichment: 0.872 for the first, 1.13 for the second.

Compared with HNELFYEEAEH [VANGL1_Y345_YF], DLGIQYKVLKP [CTNNA1_Y177_A179V] is higher in SH2 binding enrichment: 0.599 for the first, 0.793 for the second.

Compared with SSKILYHIIKG [CDH17_Y489], LYSDHYSPSGR [TMPRSS12_Y23] is higher in SH2 binding enrichment: 0.958 for the first, 1.1 for the second.

First: RLQEDYDHSYY [ESD_Y258_G257D]
Second: CNRADYSKLAP [GNE_Y22]
The SH2 binding enrichment of the first is higher: 0.932 for the first, 0.793 for the second.

First: IALSKYGRVKW [FGF6_Y186_R191W]
Second: LNPLVYTLRNA [OR4C12_Y285_V283L]
The SH2 binding enrichment of the first is higher: 1.26 for the first, 1.22 for the second.

Compared with LSDGPYSSPFE [EPOR_Y485_N487S_YF], CTTFHYNFMCN [TP53_Y234_I232F_YF] is higher in SH2 binding enrichment: 0.507 for the first, 1.64 for the second.

Compared with VKKKLDEEIDQ [CYP17A1_Y329_Y329D], HICTAYELVLA [DHCR24_Y190] is lower in SH2 binding enrichment: 1.03 for the first, 1.01 for the second.

First: TVFENYVADIK [RHOA_Y42_E47K]
Second: GKLIFYDLRGE [KARS1_Y145]
The SH2 binding enrichment of the first is lower: 0.846 for the first, 0.947 for the second.

For RFLERYIYNPE [HLA-DPB1_Y57_R61P], the SH2 binding enrichment was 1.17.
